Data: patent publication US20210032299A1 (Eli Lilly, published 2021)
Starred links: 1 amine or outer side, 2 acyl side, 3 side chain; linkers in the order of their positions; H or OH if unused. Non-standard residues stand in square brackets, D forms with d. Groups on a side chain read outwards from the residue. No end group written: not given here. *: point of attachment. C20 diacid = O=C(O)CCCCCCCCCCCCCCCCCCC(=O)*; αMePhe(2-F) = C[C@](N)(Cc1ccccc1F)C(=O)O; γGlu = O=C(O)[C@H](CCC(=O)[*:2])N[*:1]; 4Pal = N[C@@H](Cc1ccncc1)C(=O)O; αMeL = CC(C)C[C@](C)(N)C(=O)O; AEEA = NCCOCCOCC(=O)O; Aib = CC(C)(N)C(=O)O

Assays:
Assay in all cases: cell-based or functional assay
human GLP-1 receptor = human GLP-1 receptor (human, UniProt P43220 24-463)
[1] = biological target: T1, human glucose-dependent insulinotropic peptide receptor (human, UniProt P48546 22-466)
T1 sequence (looked up): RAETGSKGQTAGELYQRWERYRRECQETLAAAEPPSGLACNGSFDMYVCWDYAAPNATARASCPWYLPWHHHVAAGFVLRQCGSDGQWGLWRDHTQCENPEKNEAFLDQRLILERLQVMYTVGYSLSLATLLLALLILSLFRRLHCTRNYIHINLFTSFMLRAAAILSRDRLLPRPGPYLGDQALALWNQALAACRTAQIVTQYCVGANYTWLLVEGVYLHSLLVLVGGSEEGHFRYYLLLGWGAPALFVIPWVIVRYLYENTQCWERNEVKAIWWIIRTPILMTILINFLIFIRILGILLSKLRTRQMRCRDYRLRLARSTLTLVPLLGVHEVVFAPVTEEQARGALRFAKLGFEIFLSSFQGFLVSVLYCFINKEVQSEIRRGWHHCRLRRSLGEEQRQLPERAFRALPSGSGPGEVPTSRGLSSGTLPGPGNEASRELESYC

human glucagon receptor = human glucagon receptor (human, UniProt P47871 26-477)
Sequence of human glucagon receptor (P47871 26-477): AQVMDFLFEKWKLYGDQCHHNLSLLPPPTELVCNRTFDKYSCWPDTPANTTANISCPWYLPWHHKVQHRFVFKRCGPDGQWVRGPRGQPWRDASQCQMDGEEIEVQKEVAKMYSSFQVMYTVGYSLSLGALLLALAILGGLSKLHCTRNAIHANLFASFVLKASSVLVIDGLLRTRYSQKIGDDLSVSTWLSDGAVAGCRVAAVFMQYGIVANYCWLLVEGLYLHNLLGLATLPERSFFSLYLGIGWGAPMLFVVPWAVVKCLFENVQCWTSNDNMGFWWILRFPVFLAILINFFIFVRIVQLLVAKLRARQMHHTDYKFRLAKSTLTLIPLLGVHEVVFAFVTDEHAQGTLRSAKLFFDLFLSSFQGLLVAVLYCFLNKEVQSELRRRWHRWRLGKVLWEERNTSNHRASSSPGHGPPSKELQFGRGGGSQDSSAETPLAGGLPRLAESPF

B1: Example 52 (peptide)
peptide: Y[Aib]EGTFISDYSI[αMeL]LDKK([AEEA-AEEA-γGlu-C20 diacid])HQ[Aib]EFVE[4Pal]LLAGGPSSGAPPPS-NH2
modifications: N-terminus assumed
SMILES: CC[C@H](C)[C@H](NC(=O)[C@H](Cc1ccccc1)NC(=O)[C@@H](NC(=O)CNC(=O)[C@H](CCC(=O)O)NC(=O)C(C)(C)NC(=O)[C@@H](N)Cc1ccc(O)cc1)[C@@H](C)O)C(=O)N[C@@H](CO)C(=O)N[C@@H](CC(=O)O)C(=O)N[C@@H](Cc1ccc(O)cc1)C(=O)N[C@@H](CO)C(=O)N[C@H](C(=O)N[C@@](C)(CC(C)C)C(=O)N[C@@H](CC(C)C)C(=O)N[C@@H](CC(=O)O)C(=O)N[C@@H](CCCCN)C(=O)N[C@@H](CCCCNC(=O)COCCOCCNC(=O)COCCOCCNC(=O)CC[C@H](NC(=O)CCCCCCCCCCCCCCCCCCC(=O)O)C(=O)O)C(=O)N[C@@H](Cc1c[nH]cn1)C(=O)N[C@@H](CCC(N)=O)C(=O)NC(C)(C)C(=O)N[C@@H](CCC(=O)O)C(=O)N[C@@H](Cc1ccccc1)C(=O)N[C@H](C(=O)N[C@@H](CCC(=O)O)C(=O)N[C@@H](Cc1ccncc1)C(=O)N[C@@H](CC(C)C)C(=O)N[C@@H](CC(C)C)C(=O)N[C@@H](C)C(=O)NCC(=O)NCC(=O)N1CCC[C@H]1C(=O)N[C@@H](CO)C(=O)N[C@@H](CO)C(=O)NCC(=O)N[C@@H](C)C(=O)N1CCC[C@H]1C(=O)N1CCC[C@H]1C(=O)N1CCC[C@H]1C(=O)N[C@@H](CO)C(N)=O)C(C)C)[C@@H](C)CC
hGLP1R cAMP Rel EC50 (human GLP-1 receptor): > 5000 nM
hGIPR cAMP Rel EC50 [1]: 0.0194 nM
hGcgR cAMP Rel EC50 (human glucagon receptor): 337 nM

B2: Example 51 (peptide)
peptide: Y[Aib]EGT[αMePhe(2-F)]ISDYSI[αMeL]LDKK([AEEA-AEEA-γGlu-C20 diacid])HQ[Aib]DFVE[4Pal]LLAGGPSSGAPPPS-NH2
modifications: N-terminus assumed
SMILES: CC[C@H](C)[C@H](NC(=O)[C@H](CO)NC(=O)[C@H](Cc1ccc(O)cc1)NC(=O)[C@H](CC(=O)O)NC(=O)[C@H](CO)NC(=O)[C@@H](NC(=O)[C@](C)(Cc1ccccc1F)NC(=O)[C@@H](NC(=O)CNC(=O)[C@H](CCC(=O)O)NC(=O)C(C)(C)NC(=O)[C@@H](N)Cc1ccc(O)cc1)[C@@H](C)O)[C@@H](C)CC)C(=O)N[C@@](C)(CC(C)C)C(=O)N[C@@H](CC(C)C)C(=O)N[C@@H](CC(=O)O)C(=O)N[C@@H](CCCCN)C(=O)N[C@@H](CCCCNC(=O)COCCOCCNC(=O)COCCOCCNC(=O)CC[C@H](NC(=O)CCCCCCCCCCCCCCCCCCC(=O)O)C(=O)O)C(=O)N[C@@H](Cc1c[nH]cn1)C(=O)N[C@@H](CCC(N)=O)C(=O)NC(C)(C)C(=O)N[C@@H](CC(=O)O)C(=O)N[C@@H](Cc1ccccc1)C(=O)N[C@H](C(=O)N[C@@H](CCC(=O)O)C(=O)N[C@@H](Cc1ccncc1)C(=O)N[C@@H](CC(C)C)C(=O)N[C@@H](CC(C)C)C(=O)N[C@@H](C)C(=O)NCC(=O)NCC(=O)N1CCC[C@H]1C(=O)N[C@@H](CO)C(=O)N[C@@H](CO)C(=O)NCC(=O)N[C@@H](C)C(=O)N1CCC[C@H]1C(=O)N1CCC[C@H]1C(=O)N1CCC[C@H]1C(=O)N[C@@H](CO)C(N)=O)C(C)C
hGLP1R cAMP Rel EC50 (human GLP-1 receptor): 24.7 nM
hGIPR cAMP Rel EC50 [1]: 0.0166 nM
hGcgR cAMP Rel EC50 (human glucagon receptor): 308 nM
